The text below walks through data of PMC4633494, “An antennal carboxylesterase from Drosophila melanogaster, esterase 6, is a candidate odorant-degrading enzyme toward food odorants” (Frontiers in Physiology, 2015).

Details in all cases: concentrated culture medium, enzyme titrated, GC-MS assay at pH 8.0, 25 mM Tris-HCl, 200 µM substrate, BSA, 5% ethanol
Substrate in data set [1]: CCCOC(=O)CCC
Put plainly: cells, lysate or membranes.

Substrate in data set [2]: CCCCCOC(C)=O
Kind of data set: competitive inhibition of 4-nitrophenyl acetate hydrolysis (Ki taken as Km); kcat from GC-MS substrate loss. Format: biochemical, Drosophila melanogaster.
Excerpt: (§1) competitive inhibition of 4-nitrophenyl acetate hydrolysis (Ki taken as Km); kcat from GC-MS substrate loss on EST-6 (EST-6^F), esterase 6

Substrate in data set [3]: CCCCCCCCOC(=O)CC
Excerpt: as §1
The description is as above. Format: biochemical, Drosophila melanogaster.

B1: EST-6 (EST-6^F), esterase 6 (Drosophila melanogaster) (protein)
chain: SDTDDPLLVQLPQGKLRGRDNGSYYSYESIPYAEPPTGDLRFEAPEPYKQKWSDIFDATKTPVACLQWDQFTPGANKLVGEEDCLTVSVYKPKNSKRNSFPVVAHIHGGAFMFGAAWQNGHENVMREGKFILVKISYRLGPLGFVSTGDRDLPGNYGLKDQRLALKWIKQNIASFGGEPQNVLLVGHSAGGASVHLQMLREDFGQLARAAFSFSGNALDPWVIQKGARGRAFELGRNVGCESAEDSTSLKKCLKSKPASELVTAVRKFLIFSYVPFAPFSPVLEPSDAPDAIITQDPRDVIKSGKFGQVPWAVSYVTEDGGYNAALLLKERKSGIVIDDLNERWLELAPYLLFYRDTKTKKDMDDYSRKIKQEYIGNQRFDIESYSELQRLFTDILFKNSTQESLDLHRKYGKSPAYAYVYDNPAEKGIAQVLANRTDYDFGTVHGDDYFLIFENFVRDVEMRPDEQIISRNFINMLADFASSDNGSLKYGECDFKDNVGSEKFQLLAIYIDGCQNRQHVEFP
notes: natural allele expressed behind its own signal peptide (secreted) with BacuVance baculovirus system (Genscript); no tag told
For orientation: Km means the concentration of substrate that gives half-maximal velocity. Broadly, the kcat is the number of substrate molecules converted per active site and unit of time at saturation. Consider B1, for which the Km in data set [1] was found to be 18.3 mM; in data set [2], 2.93 mM; in data set [3], 3.16 mM. In addition, the figures for the kcat in data set [1], in data set [2] and in data set [3] were 1670 s⁻¹, 969 ± 215 s⁻¹ and 4520 ± 1680 s⁻¹, respectively.
